Test results as given in publication PMC10245032 (EMBO Molecular Medicine, 2023).

T1: PfCSP C‐terminal linker peptide P2 (PfCSP 281–294) (Plasmodium falciparum NF54)
T1 construct: Plasmodium falciparum NF54 circumsporozoite protein (PfCSP), aa 281–294 of the C-linker; One of 14 overlapping peptides (P1-P14); also called C‐CSP peptide; source: synthetic peptide (PSL Peptide Specialty Laboratories GmbH)
T1 chain: QGHNMPNDPNRNVD

T2: PfCSP C‐linker peptide (aa 273–310) (Plasmodium falciparum NF54, UniProt P19597)
T2 construct: Plasmodium falciparum NF54 circumsporozoite protein, C-linker, aa 273–310; source: synthetic peptide (PSL Peptide Specialty Laboratories GmbH)
T2 chain: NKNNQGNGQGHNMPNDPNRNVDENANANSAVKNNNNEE

B1: mAb 3764 (recombinant human IgG1) (antibody, V domains shown)
VH: QVQLVESGGGVVQPGRSLRLSCAASGFTFSSYGMHWVRQAPGKGLEWVAVIWYDGSYKSYIESVKGRFTISRDNSKNTLYLQMNSLRVEDTAVYYCALGYSSGQGTLDNWGQGTLVTVSS
VL: DVVMTQSPLSLAVTLGQPASISCRSTQSLVYSDGNTYLNWFQQRPGQSPRRLIYKVSNRDSGVPDRFSGSESGTDFTLKISRVEAEDVGLYYCMQGTHWPWTFGQGTKVEIK
notes: heavy chain variable region of mAb 3764 (IGHV3-33); human IgG1 constant region from the IGHG1 expression vector; kappa chain variable region of mAb 3764; human Ig kappa constant region from the IGKC expression vector; IgG1; Somatic mutations H.N56Y and H.Y58S against germline are already part of the antibody; also called C‐linker specific mAb 3764; source: HEK293T, co-transfected, purified from …
B2: 3764 Fab (Fab, V domains shown)
VH: B1 VH
VL: B1 VL
notes: mAb 3764 heavy chain variable region upstream of human IgG1-CH1; mAb 3764 kappa chain variable region upstream of human IgK constant domain; also called mAb 3764 Fab; source: HEK293F, transiently co-transfected, purified (Kappa-select, MonoS cation exchange, Superdex 200 SEC)

What was measured:
Conditions in all cases: both partners purified
[1] = target: T3, PfCSP C‐terminal domain (C‐CSP), NF54 (Plasmodium falciparum NF54, UniProt P19597); assay: ELISA; antigen coated on 384-well plates overnight at 4°C in PBS (full-length PfCSP 0.4 μg/ml, C-CSP 1 μg/ml, peptides 2 μg/ml); mAb from 4 μg/ml in PBS, RT 1.5 h; detected with anti-human IgG-HRP; AUC
T3 construct: Plasmodium falciparum NF54 circumsporozoite protein, C-terminal domain made of the C-linker (aa 273–310) and the α-TSR domain (aa 311–384); also called C‐CSP peptide; PfCSP C terminus; source: E. coli, by the EMBL protein expression and purification core facility

[2] = target: T4, full‐length PfCSP (FL‐CSP), NF54 (Plasmodium falciparum NF54); assay: as above
T4 construct: Plasmodium falciparum NF54 circumsporozoite protein, called full-length; source: FL-CSP expressed in E. coli by the EMBL core facility; a biotinylated NF54 FL-CSP was expressed in HEK293F and purified (HisTrap HP, SEC)

[3] = target: T1, PfCSP C‐terminal linker peptide P2 …; assay: as above
[4] = target: T2, PfCSP C‐linker peptide (aa 273–310); assay: as above
[5] = target: T1, PfCSP C‐terminal linker peptide P2 …; assay: crystal structure; 3764 Fab and PfCSP 281-294 peptide mixed 1:3; 19% isopropanol, 19% PEG 4000, 5% glycerol, 0.095 M sodium citrate pH 5.6; 2.36 Å

Binder | binding result [1] | binding result [2] | binding result [3] | binding result [4] | binding result [5]
B1 | binds | binds | binds | binds | 
B2 |  |  |  |  | binds
